Assay results reported in the nanobody polyreactivity screen of Harvey et al. (2022).

Assay: yeast display, Sf9 membrane polyspecificity reagent, FACS + sequencing; frameworks hold sequencing errors
In short: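 Polyreactivity labels are assigned by the sorting gate from which each nanobody was recovered. The gates were low and high (top ~1%), set on anti-HA fluorescence for expression and streptavidin fluorescence for reagent binding. Before sorting, galactose-induced (36–48 hours) yeast display cells were stained for 1 hour at 4 °C with 10% biotinylated, detergent-solubilized Sf9 membrane reagent.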

QVQLVESGGGLVQAGGSLRLSCAASGFIFYPYAMGWYRQAPGKEREVVAVITSGGRTYYADSVKGRFTISRDNAKNTVYLQMNSLKPEDTAVYYCAARYGRIHWKANWPEYGYWGQGTQVTVSS
polyreactivity (PSR sort gate): low polyreactivity

QVQLVESGGGLVQAGGSLRLSCAASGRIFTYYAMGWYRQAPGKERELVAAISSGGSTYYADSGKGRFTISRDNAKNTVSLQMNSLKPEDTAVYYCAADTIYYFPYDYWGQGTQVTVSS
polyreactivity (PSR sort gate): high polyreactivity

QVQLVESGGGLVQAGGSLRLSCAASGITFYRYAMGWYRQAPGKERELVAAITWSGGSTYYADSVKGRFTISRDNAKNTVYLQMNSLKPEDTAVYYCAVDYTPEDWGDDYWGQGTQVTVSS
polyreactivity (PSR sort gate): low polyreactivity

QVQLVESGGGLVQAGGSLRLSCAASGIIFSDNAMGWYRQAPGKERELVAAIDWSGGSTYYADSVKGRFTISRDNAKNTVYLQMNSMKPEDSAVYDCAAEYRDYVPVNDTGDYWGQGTQVTVSS
polyreactivity (PSR sort gate): low polyreactivity

QVQLVESGGGLVQAGGSLRLSCAASGRTFPYNAMGWYRTAPGKERELVAAISSGGSTNYADSVKGRFTISRDNAKNTVYLQMNSLKPEDTAVYYCAVTGWPRYTWYSYGYWGQGTQVTVSS
polyreactivity (PSR sort gate): low polyreactivity

QVQLVESGGGLVQAGGSLRLSCAASGRIFYYNAMGWYRQAPGKERELVAAITSGGSTNYADSVKGRFSISRDNAKNTVYLQMNSLNPEDTAVYYCAADYYYYVAGVHYDYWGQGTQVTVSS
polyreactivity (PSR sort gate): low polyreactivity

QVQLVESGGGLVQAGGSLRLSCAASGRIFRWYGMGWYRQAPRKERELFAAISGRGGSTYYADSVKGRFTISRDIAKNTVYLQMNSLKPEDSGVYYCKKDPYYIYRPGSGQGYAFNYWGQGTQVTVSS
polyreactivity (PSR sort gate): high polyreactivity

QVQLVESGGGLVQAGGSLRLSCAASGSIFRNYAMGWYRQAPGKEREFVAAISGGGGSTYYADSVKGRFTISRDNAKNTVYLQMNSLKPEDTAVYYCARVRYYGALKLYAYDHWGQGTQVTVSS
polyreactivity (PSR sort gate): high polyreactivity

QVQLVESGAGLVQAGGSLRLSCAASGRTFWVYSMGWSRQAPGKESELVAAFRRGGITNYADSVKGRFTISRDNAKITVYLQMNCLNPEDTAVYYCATENYGYLTRYYYWGPGTQVTVSS
polyreactivity (PSR sort gate): low polyreactivity

QVQLVESGGGLVQAGGSLRLSCDASGSTFPKYAMGWYRQAPGKEWELVASISARGGGTHYADSVKGRFTISRDNAKNTVYLQMNSLKPEDTAVYYCNDVAHRQAQGAWGPGTQVTVSS
polyreactivity (PSR sort gate): low polyreactivity

QVQLVESGGGLVQAGGSLRLSCAASGRTFRNNAMGWYRQAPGKERELDAAIKGSGGSTYYADSVKGRFTISRDNAKNTVYLQMNSLKPEDTAVYYCAKAVVPWGPNFRPNHTRGYYWGQGTQATVSS
polyreactivity (PSR sort gate): low polyreactivity

QVQLVESGGGLVQAGGSLRLSCAASGSIFKYYAMGWYRQAPGKERELVAAIDWSGGNTYADSVKGRFTISRDNAKNTVYLQMNSLKPEDTAVYYCNAPGFRRLWGFGYDYWGQGTQVTVSS
polyreactivity (PSR sort gate): high polyreactivity

QVQLVESGGGLVHAGGSLRLSCAASGFIFAYYAMGWYRQAPGKERELVAAIDSAGRTTYADSVKGRFTISRDNAKNSVYLQMNSLKPEDTAVYYCAKFTPSVYKLSLQQGYDYWGQGNQVTVSS
polyreactivity (PSR sort gate): high polyreactivity

QVQLVESGGGLVQAGGSLRLSCAASGRIFGLYTMGWYRQAPGKERELVAAITSRGGRTYYADSVKGRFTLSRDNAKNSVYLQMNSLKPEDTAVYYCAAGGYWSLKYDYWGQGTQVTVSS
polyreactivity (PSR sort gate): high polyreactivity

QVQLVESGGGLVQAGGSLRLSCAASGFTSSRNAMGWYRQAPGKERELVATISSGGDTYYADSVKGRFPISRDNAKTTVYLQMNSLKPEDTAVYYCNKDPLYAWGYDYWGQGTQVTVSS
polyreactivity (PSR sort gate): low polyreactivity

QVQLVESGGGLVQAGGSLRLSCAASGRTFCSYAMGWYRQAPGKERELVAAIRYRGGSTYYADSVKGRFTISRDNAKNTVDLQMNSLKPEDTAVYYCATNTWYYYQRMYYWGQGTQVTVSS
polyreactivity (PSR sort gate): high polyreactivity

QVQLVESGGGLVQAGGSLRLSCAASGSIFIYYAMGWYRQAPGKERELVAAISSSGDSTNYADSVKGRFTISRDNAKNTVYLQMNSLKPEDTAVYYCAADPYYFYIWYWWPSFDYWGQGTQVTVSS
polyreactivity (PSR sort gate): low polyreactivity

QVQLVESGGGLVQAGGSLSLICAASGRIYYRYHMGWYRQAPGKERELVATISRSGGSTNYADSVKGRFTISRDNAKNTVYLQMNSLNPEYTAVYYCNALYLSTRSGDYWGQGTQVTVSS
polyreactivity (PSR sort gate): high polyreactivity

QVQLVESGGGIVQARGSLRLSCAASGSILSSYAMGWYTQAPGKERELVAAISKSGTRTYYADSVKGRFTISRDNAKNTVYLQMNSLKPEDTAVYYCAARYYSRTTAMDYWGQGTQVTVSS
polyreactivity (PSR sort gate): high polyreactivity

QVQLVESAGGLVQEGGSLRVSCAASGRTFGRYAMGRYRQAPGKEREMVAAITVGGGSTYYADSVKGRFTISRDTAKNTVYLQMNSLKPEDTAVYYCNALHTYTYRYDYYYWGQGTQVTVSS
polyreactivity (PSR sort gate): high polyreactivity

QVQLVESAGGLVQAGGSLRLSCAASGSTFPWNAMGWDRQAPGKERELVAAISKSGGRTYYADSVKGRFTISRDNAKNTVYLQMNSLKPVDTAVYYCAKRYALSVYYRLYDYWGQGTQVTVSS
polyreactivity (PSR sort gate): high polyreactivity

QVHLVESGGGLVQAGGSLRLSCAASGNIFGVYAMGWYRQAPGKERELVAAISDSTYYADSVKGRFTISRDNAKNTVYLQMTSLKPEDTAVYYCAAAVLGRYSAGDGYWGQGPQVTVSS
polyreactivity (PSR sort gate): low polyreactivity

QVQLVESGGGLVQAGGSLRLSCAASGLTFGDYVMGWYRQAPGKERELVATITSDGGTTYADSVKGRFTISRDNAKNTVYLQMNSLKPEVTAVYYCYADAVVDNYVGFSAAGFDYWGQGTQVTVSS
polyreactivity (PSR sort gate): low polyreactivity

QVQLVESGGGLVQAGGSLRLSCAASGSIFSAYSMGWYRQAPGKERELVAAISKSGSSTYYADSVKGRFTISRDNANNTVYFQMNSLKPEDTAVYYCAAKRAGPYGITKGMDYWGQGTQVSVSS
polyreactivity (PSR sort gate): high polyreactivity

QVQLVESGGGLDQAGGSLRLSCAASGSTFNSYVMGCYRQAPGKEREFVAAISWSGVRTYYADSVKGRFTISRDNAKNTVFLQMNSLIPEDTAVYYCAVRSGRRNYYRPAFGYWGQGTQVTVSS
polyreactivity (PSR sort gate): high polyreactivity

QVQLVESGGGLVQAGGSLRLSCAASGSTFGTNAMGWYRQAPGKEREFVAAISRRGGRTYYADSVKGRFTISRDNAKNTVYLQMNSLKPEDTAVYYCNAVSTGQGLYDYWGQGTQVTVSS
polyreactivity (PSR sort gate): high polyreactivity

QVQLVESGGGLVQAGGSLRLSCAASGFIFIQYAMGWYRQAPGKERELVAAISRSGGSTSYADSVKGRFTISRDNAKNTVYLQMNSLKPEDTAVYYCNRYYGSSGHGRPNEKYGYWGQGTQVTVSS
polyreactivity (PSR sort gate): low polyreactivity

QVQLVESGGGLVQAGGSLRLSCSATGRIFVLYDMGWYRQAPGKERELVAGISGSGGRTYYADSVKGRFTISRDNAKNTVYLQMNSLKAEDTAVYYFNALGYYWYRPYVNSNGGYWGQGTLVTVSS
polyreactivity (PSR sort gate): high polyreactivity

QVQLVESGGGLVQAGGSVRLSCAASGSIFGYYALGWYRQAPGTERELVAAISSGGSTKYADSVKGRFTISRDNAKNTVYLQMNSLKPEDTAVYYCATRIRSGSYPYPRYDYWGQGTQVTVSS
polyreactivity (PSR sort gate): high polyreactivity

QVQIVESGARLVQAGGSLRLSCAASGRTFYAYAMGWYTQAPGKDREYFASIRLRGGSTYYADSVKGRFTISRDNAKNTVYLQMHSLKPEDTAVYYGNAFYGGSSSYWYYSWGQGTQVTVSS
polyreactivity (PSR sort gate): high polyreactivity

QVQLVESGGGLVQAGGSLRLSCAASGFTFKGNAMGWYRQAPGKESELVAGISRSGRTYYADSVKGRFTISRDNAKNSVYLQMNSLKPEDTAVYYCNARNQGWASLPTMGYWGQGTQVTVSS
polyreactivity (PSR sort gate): high polyreactivity

QVQLVESGGGLVQAGGSLRLSCAASGTTFAKNAMGWYRQAPGKERELVAAISWSGGSTYYADSVKGRFTISRDNAKNSVYLQMNSLKPVDTAVYYCAADSPRYGGYGYWGQGTQVTVSS
polyreactivity (PSR sort gate): low polyreactivity

QVQLVESGGGLVQAGGSLRLICAASGSTLVANAMGGYRQAPGKERELVAAISSGGITYYADSVKGRFTISRDNAKNTVYLQMNSLKPEDTAVYYCAKRGQGFQFGRDYWGQGTQVTVSS
polyreactivity (PSR sort gate): low polyreactivity

QVQLEESGGGLVQAGGSLRLSCAASGGIFYEYAMGRYRQAPGKERELVATISFNVASTYADSVKGRFTISRDNAKNTVFLQMNSMKPEDTAVYYCIADTYWYRDSRYDYWGQGTQVTVSS
polyreactivity (PSR sort gate): low polyreactivity

QVQLVESGGGLVQAGGSLRLSCAASGSTFSSNTMGWYRQAPGKERELVAAITTGGDTYYADSVKGRFTISRDNAKNTVYLQMNSLKPEDTAVYYCAATPTYWYLWSPYDYWGQGTQVTVSS
polyreactivity (PSR sort gate): low polyreactivity

QVQLVDSGGGLVQASGSLRLSCAASGSIFLFYAMGGYRQAPGKERQVVAAITSGGRTYYADSVKGRFTISRDNAKNTVYLQMNSLKPEDTAVYYCNAVRFYSIGLGQDDYWGQGTQVTVSS
polyreactivity (PSR sort gate): low polyreactivity

EVQLVESGGGLFQAGGSLRLSCAASGFTFYRYAMGWYRQAPGKERELVAGITWGGGRTYYADSVKGRFTISRDNAKNTVYFQMNSLKPEATAVYYCAAYYSQDSRRKYDYWGQVTQVTVSS
polyreactivity (PSR sort gate): high polyreactivity

QVQLVESGGGLVQAGGSLRLSCAASGSIFGDNAMGWYRKAPGKERELVAGISSSGGRTYYADSVKGRFTISRDNAKNTVYLQMNSLKPEVTAVYYCAKEPGWGRRSTTAYDYCGQGTQVTVSS
polyreactivity (PSR sort gate): low polyreactivity

QVQLVESGGGLVQAGGSLSLSCADSGSTIYRYAMGWNRQAPGKEREFVATISRSGGGTYYADSEKGRLTISRDNAMNTVYLQMISLKPEDTSVYYCAARDVVQAGYYVKKYDYWGQGTQVTVSS
polyreactivity (PSR sort gate): high polyreactivity

QVHLVESGVGLVQARGSLRLSCASSGSTFGGNAMGWYRQAPGTERELVAAIDSGGGTNYADSVKGRFTIARDNAKNTVYLQMTSLKPEDTAVYYCNADWAVRSTQNSSSGHDYWGQATQVTVSS
polyreactivity (PSR sort gate): low polyreactivity

QVQLVESGGGLVQAGGSLRLSCAASGSTFSYYAMGWYRQAPGKEREFVASISWRGGSTYYADSVKGRFTISRDNAKNTVYLQMNRLKPEDTAVYYCAASSRSRWSGYRYDYWGQGTQVTVSS
polyreactivity (PSR sort gate): high polyreactivity

QVQLVESGGGLVQAGGSLRLSCAASGSSKLRLWDGIDRRLGKKGSWLPLFVLVVLRNYADSVKGRFTISRDNAKNTVYLQMNSLKPEDTAVYYCAATPIGSGGWGDYWGQGTQVTVSS
polyreactivity (PSR sort gate): low polyreactivity

QVQLVESGGGLVQAGGSLRLSCAASGGTFHYYAMGWYRQAPGKERELVAAISWSGGSTYYADSVKGRFTISRDNAKNTVYLQMNSLKPEDTAVYYCAAETYPYLFHTYDYWGQGTQVTVSS
polyreactivity (PSR sort gate): low polyreactivity
